Measured values taken from the RNAGym collection of RNA variant scans (doi:10.7554/elife.80360).

B1: Hammerhead Ribozyme (parent)
chain: ACCGGAUGUGCUUUCCGGUCUGAUGAGUCCGUGAGGACGAAACAG

Variants of: B1
Assay: self-cleavage, relative activity (ratio to wild type); higher = more cleavage; co-transcriptional

Variant	self-cleavage
U21G G31C	0.577
A23U A40G	0.237
C15U	0.912
U9G A41G	0.303
C2G U12G	0.31
C2U G35A	0.871
C2U C3A	0.417
C11A G17U	1
C38G A41G	0.404
U7G C38U	1.4
G10U U28A	0.771
G35C A42G	0.26
G17C A34U	0.501
G22A A42G	0.351
G5U G25A	0.351
G8U G18U	0.779
G8U G17A	0.652
G8U A37C	1.09
C11A G18A	0.839
U14G G18C	0.533
G5U C20A	0.292
U14A C43G	0.334
C3G G39A	0.31
A42C G45U	0.421

Variant	self-cleavage
G22C U28A	0.351
A6U C30U	0.743
C20G A42U	0.313
G17A A37C	0.642
U9C G17A	0.754
U14A C29G	0.562
A1G C30A	1.3
U9G C30G	0.898
G27U A41G	0.312
G17C G35U	0.371
G5A G45U	0.587
C3A G35C	0.324
A23C G35C	0.408
C15A G25C	0.381
C15A G25A	0.341
U21G G35U	0.413
A26G U32G	0.412
G8U U32G	0.859
U9A G22C	0.359
U9A G22U	0.311
C15G G35U	0.455
A6C U24C	0.387
C15U G33U	1.02
A6C U32C	0.838

Variant	self-cleavage
G25U C43G	0.357
G4C U28C	0.331
G5U U13G	1.02
G8A U14A	0.866
G8A G33U	1.13
C29A A44C	0.323
U12G U13A	1.25
G8U C43A	0.254
C30G U32A	0.632
C30G U32C	0.581
C20A A23G	0.27
U9G C38U	0.876
C3G A6U	0.322
C3U A41G	0.354
G5C G33U	0.736
G10C A23C	0.538
U9A A42G	0.218
C20A U28C	0.487
G10A C30G	0.783
G31A G39U	0.315
A6C C43G	0.294
A6C C43U	0.429
A1U G31C	0.621
A40C	0.73

Variant	self-cleavage
C11G G17U	0.589
U13G C30U	0.786
C3G C43U	0.272
U13A C20G	0.354
G33A A44U	0.98
A26C A37G	0.671
G5A G33C	1.22
C2U G25C	0.345
U12G G45C	0.676
G4A G5A	0.54
C16G U21G	0.278
U9C G39C	0.434
G10C A37G	0.958
G27A C43U	0.33
G39A	0.347
A23U C29U	0.322
G5U G27A	0.504
G5U G27U	0.366
U12C A26G	0.308
U12C G45U	0.564
C2G U7C	0.373
U28A A40U	0.41
G8A G27C	0.665
G8C C16U	1.32

Variant	self-cleavage
C3G G27A	0.317
C15A C16G	0.521
G31C A40U	0.367
A26G A34C	0.346
U28C G36U	0.591
A41G C43G	0.346
U21C A42C	0.28
G10C G18U	0.746
G17U A42G	0.333
G5U C11G	0.815
G5U U19G	0.379
U13C G45C	0.743
C3A G10U	0.921
A40C A42U	0.427
G10C C30G	0.675
C11U C15G	1.04
G4A G25U	0.316
C11G C16U	1.23
G8U A44C	0.59
U24A G27U	0.508
A23U G33A	0.524
C2G A6G	0.292
C3G C15G	0.314
U28C C29G	0.583

Variant	self-cleavage
U28C C29U	0.688
G18C A40C	0.389
G4C A41C	0.316
C15A C38A	0.501
G4U G39U	0.29
G10A G18U	1.13
G17A A41C	0.259
C3A A26U	0.399
C20G C38U	0.38
U14G A41U	0.367
G4C C38G	0.346
A23U G27U	0.279
C30A A34G	0.628
G27U G45U	0.488
U7G U24A	1.4
U28A A41C	0.277
U28A A41U	0.303
C16G C30A	0.712
U24C G36C	0.383
G8A C20G	0.381
A6U U19A	0.337
U21A G45C	0.335
G31A A44G	1.51
A37G A41C	0.358

Variant	self-cleavage
A26C G35U	0.334
G10C A34C	0.424
G10C C16G	0.522
G18U U32G	0.802
U12C U21A	0.471
G4C C20G	0.266
U7C G18A	0.438
U9C A44C	0.493
U7A A42G	0.216
A23U U32C	0.311
A42U C43A	0.344
U21A G27C	0.296
G22A G31U	0.427
G4U A42C	0.265
U9A U12G	0.802
A6U A40C	0.268
G4A G8A	0.555
C16A G45A	0.574
G22A A34C	0.286
G25U A41G	0.35
C43A A44C	0.474
G18C U28G	0.44
C30G G33A	0.715
